# In patent US20240166747A1 (GlaxoSmithKline, published 2024):
# Columns and labels:
# [1] = biological target: T1, native cynomolgus monkey CD96 on primary cynomolgus monkey T cells (cynomolgus monkey, UniProt A0A2K5TWV6 22-569); experiment: flow cytometry on activated primary cynomolgus monkey T cells (PE median MFI), pooled donor
# T1 construct: whole, on cells
# T1 sequence: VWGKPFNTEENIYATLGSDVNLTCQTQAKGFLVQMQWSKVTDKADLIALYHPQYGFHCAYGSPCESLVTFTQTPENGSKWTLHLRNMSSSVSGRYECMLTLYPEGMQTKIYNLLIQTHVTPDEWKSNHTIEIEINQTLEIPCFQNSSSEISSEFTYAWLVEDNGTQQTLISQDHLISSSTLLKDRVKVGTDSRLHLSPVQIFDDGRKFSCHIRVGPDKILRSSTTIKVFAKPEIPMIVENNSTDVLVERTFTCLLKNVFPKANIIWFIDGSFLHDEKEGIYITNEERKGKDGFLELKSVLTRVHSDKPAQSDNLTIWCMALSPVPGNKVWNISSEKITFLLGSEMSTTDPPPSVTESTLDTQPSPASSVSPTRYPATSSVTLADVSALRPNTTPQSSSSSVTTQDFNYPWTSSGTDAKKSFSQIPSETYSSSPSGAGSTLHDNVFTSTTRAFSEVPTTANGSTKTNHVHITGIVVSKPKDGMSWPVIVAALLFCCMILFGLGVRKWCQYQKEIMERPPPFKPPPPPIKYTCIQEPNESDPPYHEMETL
# [2] = biological target: T2, cynomolgus monkey CD96v2 expressed on cells (cynomolgus monkey, UniProt A0A2K5TWV6 22-569); experiment: flow cytometry on transiently transfected HEK cells (normalised MFI), upper left panel
# T2 construct: also called CHO-cyCD96; Cyno CD96v2
# T2 sequence: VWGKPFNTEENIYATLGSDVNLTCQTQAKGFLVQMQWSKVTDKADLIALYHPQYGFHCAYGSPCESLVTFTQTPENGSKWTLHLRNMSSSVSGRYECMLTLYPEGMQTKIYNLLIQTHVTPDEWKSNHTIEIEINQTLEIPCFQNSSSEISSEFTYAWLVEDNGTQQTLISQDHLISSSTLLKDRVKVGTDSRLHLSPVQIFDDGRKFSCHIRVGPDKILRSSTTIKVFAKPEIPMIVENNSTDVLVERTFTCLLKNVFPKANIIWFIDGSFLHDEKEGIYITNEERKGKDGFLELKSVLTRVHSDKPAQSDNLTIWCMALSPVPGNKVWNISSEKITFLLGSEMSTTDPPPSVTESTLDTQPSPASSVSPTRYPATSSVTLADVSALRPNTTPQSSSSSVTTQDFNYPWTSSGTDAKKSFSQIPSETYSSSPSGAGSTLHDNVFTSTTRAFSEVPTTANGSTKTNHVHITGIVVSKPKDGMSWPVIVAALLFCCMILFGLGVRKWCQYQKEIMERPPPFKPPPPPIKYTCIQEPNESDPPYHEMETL
# [3] = biological target: T3, human CD96v1 expressed on HEK cells (human, UniProt P40200 22-585); experiment: as above
# T3 construct: whole, on cells
# T3 sequence (looked up): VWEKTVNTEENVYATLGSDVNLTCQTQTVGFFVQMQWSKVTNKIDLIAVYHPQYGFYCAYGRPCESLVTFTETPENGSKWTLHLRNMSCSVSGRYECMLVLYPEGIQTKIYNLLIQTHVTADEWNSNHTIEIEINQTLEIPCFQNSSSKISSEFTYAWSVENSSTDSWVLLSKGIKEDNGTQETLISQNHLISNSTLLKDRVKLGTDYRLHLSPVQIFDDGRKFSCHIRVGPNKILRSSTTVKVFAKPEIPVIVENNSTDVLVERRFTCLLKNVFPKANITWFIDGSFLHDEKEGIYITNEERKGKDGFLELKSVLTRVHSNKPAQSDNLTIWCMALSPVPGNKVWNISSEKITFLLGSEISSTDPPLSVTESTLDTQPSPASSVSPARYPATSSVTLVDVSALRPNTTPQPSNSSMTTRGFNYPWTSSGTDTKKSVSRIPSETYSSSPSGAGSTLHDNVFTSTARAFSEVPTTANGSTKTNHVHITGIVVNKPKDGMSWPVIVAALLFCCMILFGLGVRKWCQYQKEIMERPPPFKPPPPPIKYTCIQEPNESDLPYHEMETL
# [4] = biological target: T2, cynomolgus monkey CD96v2 expressed on …; experiment: flow cytometry, CHO cells expressing cynomolgus CD96v2
# Description: CHO cells expressing human CD96v2 or cynomolgus monkey CD96v2 were prepared in PBS. The cynomolgus monkey CD96v2 cells were stained with 1 μM violet proliferation dye (VPD450). […] The stained CHO-cyCD96 and unstained CHO-huCD96 cells were combined and added to wells of a 384-well assay plate together with dilutions of test anti-CD96 binding proteins for 1h at 4° C. Cells were further incubated with anti-IgG APC conjugate antibody and the amount of surface bound antibody on each of the CHO-cyCD96 and CHO-huCD96 cells was determined by flow cytometry. Median fluorescence intensity (MFI) values were fitted using a 4 parameter logistic model to calculate the EC50 of binding.
EC50 (read off the curve) [1],EC50 (read off the curve) [2],EC50 (read off the curve) [3],EC50 [4],Binder
~0.06 nM,~8 nM,~4 nM,–,"42Y073-86F08-66 (antibody, human IgG1, kappa, expressed in CHO or HEK cells; also called GSK 6097608; GSK6097608) heavy: not shown light: DIQLTQSPSSLSASVGDRVTITCRASQSISSYLNWYQQKPGKAPKLLIYAASSLQSGVPSRFSGSGSGTDFTLTISSLQPEDFATYYCQQVLHTITFGGGTKVEIKRTVAAPSVFIFPPSDEQLKSGTASVVCLLNNFYPREAKVQWKVDNALQSGNSQESVTEQDSKDSTYSLSSTLTLSKADYEKHKVYACEVTHQGLSSPVTKSFNRGEC"
–,–,–,0.08 nM,"42Y073-86F08-3 (antibody, V domains shown) VH: QVQLVQSGAEVKKPGSSVKVSCKASGGTFVNYAISWVRQAPGQGLEWMGGIIPALGTANYAQKFQGRVTITADESTSTAYMELSSLRSEDTAVYYCARGAGYYGDKDPMDVWGQGTTVTVSS VL: DIQLTQSPSSLSASVGDRVTITCRASQSISSYLNWYQQKPGKAPKLLIYAASSLQSGVPSRFSGSGSGTDFTLTISSLQPEDFATYYCQQVLHTITFGGGTKVEIK"
